# Measurements from the Human Domainome abundance scans (Beltran et al. 2025).
# ± gives the uncertainty stated by the source.
# B1: Chromodomain-helicase-DNA-binding protein 7, residues 2564 to 2605; numbered along this chain, Q9P2D1 (parent)
# chain: DPDTRIPVINLEDGTRLVGEDAPKNKDLVEWLKLHPTYTVDM
# Variants of: B1
# Assay: abundance fitness (aPCA) (normalised: wild type 0, dead -1); higher = more abundant; growth selection in yeast, the domain comes from the species named
# Settings: Homo sapiens
row,Variant,abundance fitness
1,DPDTRIPVINLEDGTRLVGEDAPKNKDLVEDLKLHPTYTVDM,-0.128 ± 0.065
2,DPDTRIPVINLEDGTRLVGEDAPKNKDLVECLKLHPTYTVDM,-0.301 ± 0.051
3,DPDTRIPVINLEDGTRLVGEDAPKNKDLVEILKLHPTYTVDM,-0.463 ± 0.086
4,DPDTRIPVINLEDGTRLVGEDAPKNKDLVEVLKLHPTYTVDM,-0.336 ± 0.059
5,DPDTRIPVINLEDGTRLVGEDAPKNKDLVERLKLHPTYTVDM,-0.363 ± 0.072
6,DPDTRIPVINLEDGTRLVGEDAPKNKDLVEALKLHPTYTVDM,-0.166 ± 0.094
7,DPDTRIPVINLEDGTRLVGEDAPKNKDLVETLKLHPTYTVDM,-0.398 ± 0.16
8,DPDTRIPVINLEDGTRLVGEDAPKNKDLVESLKLHPTYTVDM,-0.38 ± 0.084
9,DPDTRIPVINLEDGTRLVGEDAPKNKDLVEQLKLHPTYTVDM,-0.569 ± 0.16
10,DPDTRIPVINLEDGTRLVGEDAPKNKDLVEMLKLHPTYTVDM,-0.196 ± 0.11
11,DPDTRIPVINLEDGTRLVGEDAPKNKDLVEWSKLHPTYTVDM,-0.255 ± 0.064
12,DPDTRIPVINLEDGTRLVGEDAPKNKDLVEWEKLHPTYTVDM,-0.324 ± 0.074
13,DPDTRIPVINLEDGTRLVGEDAPKNKDLVEWIKLHPTYTVDM,-0.434 ± 0.093
14,DPDTRIPVINLEDGTRLVGEDAPKNKDLVEWDKLHPTYTVDM,-0.332 ± 0.12
15,DPDTRIPVINLEDGTRLVGEDAPKNKDLVEWAKLHPTYTVDM,-0.537 ± 0.095
16,DPDTRIPVINLEDGTRLVGEDAPKNKDLVEWRKLHPTYTVDM,-0.332 ± 0.078
17,DPDTRIPVINLEDGTRLVGEDAPKNKDLVEWGKLHPTYTVDM,-0.214 ± 0.05
18,DPDTRIPVINLEDGTRLVGEDAPKNKDLVEWTKLHPTYTVDM,-0.334 ± 0.14
19,DPDTRIPVINLEDGTRLVGEDAPKNKDLVEWWKLHPTYTVDM,-0.574 ± 0.075
20,DPDTRIPVINLEDGTRLVGEDAPKNKDLVEWCKLHPTYTVDM,-0.343 ± 0.079

row,Variant,abundance fitness
1,DPDTRIPVINLEDGTRLVGEDAPKNKDLVEWNKLHPTYTVDM,-0.342 ± 0.068
2,DPDTRIPVINLEDGTRLVGEDAPKNKDLVEWVKLHPTYTVDM,-0.586 ± 0.085
3,DPDTRIPVINLEDGTRLVGEDAPKNKDLVEWFKLHPTYTVDM,-0.375 ± 0.14
4,DPDTRIPVINLEDGTRLVGEDAPKNKDLAEWLKLHPTYTVDM,0.11 ± 0.068
5,DPDTRIPVINLEDGTRLVGEDAPKNKDLCEWLKLHPTYTVDM,-0.087 ± 0.081
6,DPDTRIPVINLEDGTRLVGEDAPKNKDLMEWLKLHPTYTVDM,-0.095 ± 0.12
7,DPDTRIPVINLEDGTRLVGEDAPKNKDLKEWLKLHPTYTVDM,0.229 ± 0.089
8,DPDTRIPVINLEDGTRLVGEDAPKNKDLDEWLKLHPTYTVDM,-0.022 ± 0.087
9,DPDTRIPVINLEDGTRLVGEDAPKNKDLIEWLKLHPTYTVDM,-0.15 ± 0.064
10,DPDTRIPVINLEDGTRLVGEDAPKNKDLGEWLKLHPTYTVDM,-0.081 ± 0.064
11,DPDTRIPVINLEDGTRLVGEDAPKNKDLFEWLKLHPTYTVDM,-0.168 ± 0.069
12,DPDTRIPVINLEDGTRLVGEDAPKNKDLPEWLKLHPTYTVDM,0.063 ± 0.083
13,DPDTRIPVINLEDGTRLVGEDAPKNKDLNEWLKLHPTYTVDM,0.126 ± 0.053
14,DPDTRIPVINLEDGTRLVGEDAPKNKDLTEWLKLHPTYTVDM,0.169 ± 0.14
15,DPDTRIPVINLEDGTRLVGEDAPKNKDLLEWLKLHPTYTVDM,-0.109 ± 0.053
16,DPDTRIPVINLEDGTRLVGEDAPKNKDLSEWLKLHPTYTVDM,0.063 ± 0.084
17,DPDTRIPVINLEDGTRLVGEDAPKNKDLHEWLKLHPTYTVDM,0.098 ± 0.073
18,DPDTRIPVINLEDGTRLVGEDAPKNKDLEEWLKLHPTYTVDM,0.052 ± 0.1
19,DPDTRIPVINLEDGTRLVGEDAPKNKDLREWLKLHPTYTVDM,0.121 ± 0.056
20,DPDTRIPVINLEDGTRLVGEDAPKNKDLWEWLKLHPTYTVDM,-0.416 ± 0.09

row,Variant,abundance fitness
1,DPDTRIPVINLEDGTRLVGEDAPKNKWLVEWLKLHPTYTVDM,-0.563 ± 0.073
2,DPDTRIPVINLEDGTRLVGEDAPKNKYLVEWLKLHPTYTVDM,-0.417 ± 0.1
3,DPDTRIPVINLEDGTRLVGEDAPKNKVLVEWLKLHPTYTVDM,-0.448 ± 0.068
4,DPDTRIPVINLEDGTRLVGEDAPKNKDMVEWLKLHPTYTVDM,-0.321 ± 0.06
5,DPDTRIPVINLEDGTRLVGEDAPKNKDYVEWLKLHPTYTVDM,-0.499 ± 0.12
6,DPDTRIPVINLEDGTRLVGEDAPKNKDGVEWLKLHPTYTVDM,-0.401 ± 0.048
7,DPDTRIPVINLEDGTRLVGEDAPKNKDDVEWLKLHPTYTVDM,-0.432 ± 0.056
8,DPDTRIPVINLEDGTRLVGEDAPKNKDNVEWLKLHPTYTVDM,-0.524 ± 0.1
9,DPDTRIPVINLEDGTRLVGEDAPKNKDWVEWLKLHPTYTVDM,-0.827 ± 0.079
10,DPDTRIPVINLEDGTRLVGEDAPKNKDFVEWLKLHPTYTVDM,-0.24 ± 0.11
11,DPDTRIPVINLEDGTRLVGEDAPKNKDQVEWLKLHPTYTVDM,-0.841 ± 0.2
12,DPDTRIPVINLEDGTRLVGEDAPKNKDKVEWLKLHPTYTVDM,-0.454 ± 0.14
13,DPDTRIPVINLEDGTRLVGEDAPKNKDVVEWLKLHPTYTVDM,-0.185 ± 0.048
14,DPDTRIPVINLEDGTRLVGEDAPKNKDEVEWLKLHPTYTVDM,-0.41 ± 0.072
15,DPDTRIPVINLEDGTRLVGEDAPKNKDAVEWLKLHPTYTVDM,-0.292 ± 0.067
16,DPDTRIPVINLEDGTRLVGEDAPKNKDPVEWLKLHPTYTVDM,-0.568 ± 0.11
17,DPDTRIPVINLEDGTRLVGEDAPKNKDIVEWLKLHPTYTVDM,-0.129 ± 0.068
18,DPDTRIPVINLEDGTRLVGEDAPKNKDSVEWLKLHPTYTVDM,-0.39 ± 0.062
19,DPDTRIPVINLEDGTRLVGEDAPKNKDTVEWLKLHPTYTVDM,-0.355 ± 0.083
20,DPDTRIPVINLEDGTRLVGEDAPKNKDHVEWLKLHPTYTVDM,-0.134 ± 0.11
